In this test the target is CERTL (long isoform of the ceramide transport protein CERT; GPBP, COL4A3BP) (UniProt Q9Y5P4). As to the kind of experiment: SEC-MALS of self-association. The settings on record: reference: hyperphosphorylated wild-type StrepII-CERTL (CERTLP); sites S132. Background: Size exclusion chromatography separates by hydrodynamic size, large species first.
Sequence of CERTL (long isoform of the ceramide transport protein CERT; GPBP, COL4A3BP) (Q9Y5P4 whole entry S132A, canonical isoform): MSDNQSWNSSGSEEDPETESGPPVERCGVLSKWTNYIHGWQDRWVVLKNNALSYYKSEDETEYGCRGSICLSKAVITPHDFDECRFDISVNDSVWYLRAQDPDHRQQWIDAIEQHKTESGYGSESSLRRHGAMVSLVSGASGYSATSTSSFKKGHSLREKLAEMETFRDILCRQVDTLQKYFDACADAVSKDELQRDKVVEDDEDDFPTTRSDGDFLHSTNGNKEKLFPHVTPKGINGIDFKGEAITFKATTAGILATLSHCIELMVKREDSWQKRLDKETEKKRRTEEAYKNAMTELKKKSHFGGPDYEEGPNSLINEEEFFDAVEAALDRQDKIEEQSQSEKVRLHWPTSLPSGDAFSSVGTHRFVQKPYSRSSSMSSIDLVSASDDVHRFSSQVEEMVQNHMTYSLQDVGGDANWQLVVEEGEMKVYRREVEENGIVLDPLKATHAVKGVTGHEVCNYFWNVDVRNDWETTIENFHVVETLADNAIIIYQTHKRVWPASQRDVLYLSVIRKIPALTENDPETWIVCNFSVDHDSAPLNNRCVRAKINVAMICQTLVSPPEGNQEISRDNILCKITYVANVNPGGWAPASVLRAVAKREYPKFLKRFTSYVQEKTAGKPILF

As to “CERTL (long isoform of the ceramide transport protein CERT; GPBP, COL4A3BP) (from UniProt Q9Y5P4) StrepII-CERTL S132A (hypophosphorylated)”, the “other: observed mass (expected trimer 215.7)” value is recorded as “same; reference 184.3”.

These data come from paper doi:10.1101/2022.06.01.494398.
